Positions count from the first letter of the chain named.
B1: chMy96 (antibody, V domains shown)
VH: QVQLQQPGAEVVKPGASVKMSCKASGYTFTSYYIHWIKQTPGQGLEWVGVIYPGNDDISYNQKFKGKATLTADKSSTTAYMQLSSLTSEDSAVYYCAREVRLRYFDVWGAGTTVTVSS
VL: NIMLTQSPSSLAVSAGEKVTMSCKSSQSVFFSSSQKNYLAWYQQIPGQSPKLLIYWASTRESGVPDRFTGSGSGTDFTLTISSVQSEDLAIYYCHQYLSSRTFGGGTKLEIK
notes: also called chimeric form of My96; chimeric anti-CD33 antibody
B2: My96-H1L2 (antibody, human IgG1, V domains shown)
VH: QVQLVQSGAEVKKPGASVKVSCKASGYTFTSYYMHWVRQAPGQGLEWMGVIYPGNDDISYAQKFQGRVTMTADTSTSTVYMELSSLRSEDTAVYYCAREVRLRYFDVWGAGTTVTVSS
VL: NIVLTQSPDSLAVSLGERATINCKSSQSVFFSSSQKNYLAWYQQKPGQPPKLLIYWASTRESGVPDRFSGSGSGTDFTLTISSLQAEDVAVYYCHQYLSSRTFGGGTKLEIK
notes: Humanized My96 IgG (human IgG1 frameworks), expressed in DG44 cells; also called humanized My96 VH-1/VL-2
B3: My96-H1L3 (antibody, human IgG1, V domains shown)
VH: B2 VH
VL: B2 VL with K45R, S83R, L109V
notes: Humanized My96 IgG (human IgG1 frameworks), expressed in DG44 cells; also called humanized My96 VH-1/VL-3
B4: My96-H3L1 (antibody, human IgG1, V domains shown)
VH: B2 VH with M34I, M70I, T74K, T76A, S77T, V79A, A110Q, T113L
VL: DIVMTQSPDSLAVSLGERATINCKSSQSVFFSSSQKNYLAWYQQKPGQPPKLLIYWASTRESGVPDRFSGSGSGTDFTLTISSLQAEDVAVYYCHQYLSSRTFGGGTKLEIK
notes: Humanized My96 IgG (human IgG1 frameworks), expressed in DG44 cells; also called hMy96 L1H3 (variable domains as in BsAb BC269); humanized My96 VH-3/VL-1
B5: My96-H2L2 (antibody, human IgG1, V domains shown)
VH: B2 VH with A61N, T74K
VL: B2 VL
notes: Humanized My96 IgG (human IgG1 frameworks), expressed in DG44 cells; also called humanized My96 VH-2/VL-2
B6: My96-H2L3 (antibody, human IgG1, V domains shown)
VH: B2 VH with A61N, T74K
VL: B2 VL with K45R, S83R, L109V
notes: Humanized My96 IgG (human IgG1 frameworks), expressed in DG44 cells; also called humanized My96 VH-2/VL-3
B7: My96-H2L1 (antibody, human IgG1, V domains shown)
VH: B2 VH with A61N, T74K
VL: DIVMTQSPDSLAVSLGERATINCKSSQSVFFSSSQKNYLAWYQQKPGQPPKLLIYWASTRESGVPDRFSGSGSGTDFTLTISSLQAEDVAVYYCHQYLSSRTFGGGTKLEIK
notes: Humanized My96 IgG (human IgG1 frameworks), expressed in DG44 cells; also called hMy96 L1H2 (variable domains as in BsAb BC257); humanized My96 VH-2/VL-1
B8: My96-H1L1 (antibody, human IgG1, V domains shown)
VH: B2 VH
VL: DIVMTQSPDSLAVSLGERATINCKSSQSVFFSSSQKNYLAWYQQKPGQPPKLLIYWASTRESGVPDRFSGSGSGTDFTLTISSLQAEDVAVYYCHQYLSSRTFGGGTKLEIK
notes: Humanized My96 IgG (CDRs grafted onto human IgG1 frameworks), expressed in DG44 cells; also called hMy96 H1L1; humanized My96 VH-1/VL-1
B9: My96-H3L3 (antibody, human IgG1, V domains shown)
VH: B2 VH with M34I, M70I, T74K, T76A, S77T, V79A, A110Q, T113L
VL: B2 VL with K45R, S83R, L109V
notes: Humanized My96 IgG (human IgG1 frameworks), expressed in DG44 cells; also called humanized My96 VH-3/VL-3
B10: My96-H3L2 (antibody, human IgG1, V domains shown)
VH: B2 VH with M34I, M70I, T74K, T76A, S77T, V79A, A110Q, T113L
VL: B2 VL
notes: Humanized My96 IgG (human IgG1 frameworks), expressed in DG44 cells; also called hMy96 L2H3 (variable domains as in BsAb BC248); humanized My96 VH-3/VL-2

Molecular target: T1, CD33 (UniProt P20138 18-259, limits assumed)
T1 construct: CD33 protein used as the active surface in the Biacore assay (about 1000 RU); also called Siglec-3; SIGLEC3
Test: SPR, Biacore T-200, CD33 amine-coupled on CM5 chip, antibody as analyte (31-500 nM)
Experimental: To determine whether humanized anti-CD33 My96 antibodies bind to CD33 with equal affinity as the chimeric form, surface plasmon resonance assay using Biacore T-200 was performed. Biacore T-200 Biosensor, CM5 sensor chip, and related reagents were purchased from GE Healthcare. CD33 as the active surfaces and blank as the reference were immobilized onto the CM5 sensor chip at around 1000 RU (response units) using the Amino Coupling kit (GE Healthcare). CD33 antibodies and relevant control antibodies were diluted in HBS-EP buffer (0.01 M HEPES pH 7.4, 0.15 M NaCl, 3 mM EDTA, 0.05% v/v Surfactant P20) at varying concentrations (31-500 nM) prior to analysis. Samples were injected over the sensor surface at a flow rate of 30 μL/min over 1 min. Following completion of the association phase, dissociation was monitored in HBS-EP buffer for 3 min at the same flow rate or for 30 minutes at 37° C. for antibodies with slow koff. At the end of each cycle, the surface was regenerated using 10 mM NaOH at a flow rate of 50 μL/min over 30 sec. The biosensor curves obtained following injection of the samples over active surface were subtracted from the control curves obtained with the samples injected over reference surface prior to kinetics analysis. The data were analyzed using the Biacore T-200 evaluation software. As shown in the Table below, the humanized anti-CD33 My96 antibodies bound with similar kₒₙ and koff as the chimeric form of the antibodies.

T1 sequence (P20138 18-259 limits assumed): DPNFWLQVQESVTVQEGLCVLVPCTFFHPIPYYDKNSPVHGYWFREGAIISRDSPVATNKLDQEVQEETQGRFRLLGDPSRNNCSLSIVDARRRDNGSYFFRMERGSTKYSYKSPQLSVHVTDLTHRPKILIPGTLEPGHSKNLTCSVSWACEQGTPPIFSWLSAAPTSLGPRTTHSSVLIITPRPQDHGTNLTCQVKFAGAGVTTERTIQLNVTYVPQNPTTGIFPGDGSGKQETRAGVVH

| Binder | Kd [pM] | koff [s⁻¹] | kon [M⁻¹ s⁻¹] |
| --- | --- | --- | --- |
| B1 | 0.321 | 2.38e-07 | 739000 |
| B2 | 0.218 | 1.03e-07 | 473000 |
| B3 | 0.88 | 4.95e-07 | 563000 |
| B4 | 0.00645 | 3.63e-09 | 563000 |
| B5 | 0.273 | 1.42e-07 | 520000 |
| B6 | 0.143 | 9.16e-08 | 641000 |
| B7 | 2.42 | 1.51e-06 | 623000 |
| B8 | 0.321 | 1.44e-07 | 447000 |
| B9 | 0.324 | 2.03e-07 | 625000 |
| B10 | 0.294 | 1.6e-07 | 543000 |

— patent US20220251192A1 (Memorial Sloan Kettering, published 2022)
